Results taken from patent US20160207991A1.
Like-named read-outs stand apart in the source and are kept apart here.

Key:
[1] = biological target: human brain-derived neurotrophic factor (BDNF) (human) (UniProt P23560); assay: cell-based or functional assay
[2] = biological target: human brain-derived neurotrophic factor (BDNF) (human) (UniProt P23560); assay: cell-based or functional assay; remark: listed apart in the source

Chain of human brain-derived neurotrophic factor (BDNF) (human) (P23560 129-247 limits assumed): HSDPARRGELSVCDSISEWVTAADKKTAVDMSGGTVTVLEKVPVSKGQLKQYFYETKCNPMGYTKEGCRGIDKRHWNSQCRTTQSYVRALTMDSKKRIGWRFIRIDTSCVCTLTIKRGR

TrkB-Fc (Sigma T8694) (from UniProt P15209 32-429) (Fc fusion)
PathHunter pTrkB assay in U2OS TrkB/p75NTR cells, 300 pM BDNF [1]: 4.4 nM
PathHunter pTrkB assay in U2OS TrkB/p75NTR cells, 300 pM BDNF [2]: 24 nM
pERK assay in U2OS TrkB/p75NTR cells, 150 pM BDNF [2]: 7.6 nM
